Measured values as given in patent US20200393470A1 (Regeneron, published 2020).

B1: H4H15318P (antibody, V domains shown)
VH: QVQLVESGGGVVQPGRSLRLSCTASGFTFGNFGIHWVRQAPGKGLEWVAVISYDGTDKFYADPVKGRFIISRDNSMNILYLQMNSLRAEDTAVYYCAKDGEMELRGYYYYYGMDVWGQGTTVTVSS
VL: DIQMTQSPSSVSASVGDRVTITCRASQGINTWLAWYQQKPGTAPKLLIFAASSLESGVPSRFSGSGFGTDFTLTISSLQSEDLATYFCQQVHSPPYTFGQGTKLEIK
notes: Used unlabelled in the immunoprecipitation and as capture mAb, and biotinylated as detection mAb in the sandwich ELISA; also called biotin-H4H15318P; biotinylated anti-human C19orf80 (ANGPTL8) (biotin-H4H15318P)
B2: H4H15347P (antibody, human IgG4, V domains shown)
VH: EVQLVESGGGLVQPGGSLRLSCAASGFTFRNYAMNWARQAPGKGLEWVSGITGSGGATYYADSVKGRFTISRENSKNTLFLQMDTLRAEDTAVYYCAKDRRYFPTSGGPQWGQGTLVTVSS
VL: DIVMTQSPLSLPVTPGEPASISCRSSRSLLHSSGYNYLDWYLQKPGQSPQLLLYLGSNRASGVPDRFSGSGSGTYFTLKISRVDAEDVGVYYCMQALQTPWTFGQGTKVEIK
notes: Capture mAb of the final ELISA; also called anti-human C19orf80 (ANGPTL8) (H4H15347P); biotinylated-H4H15347P
B3: H4H15361P2 (antibody, human IgG4, V domains shown)
VH: EVQLVESGGGLVQPGRSLRLSCTASGFSFGDNAMGWVRQAPGKGLEWVSFIRRKASGGTTEYAASVKGRFTISRDDSKSIAYLQMNSLKTEDTGVYYCTRGGAVYGYWGQGTLVTVSS
VL: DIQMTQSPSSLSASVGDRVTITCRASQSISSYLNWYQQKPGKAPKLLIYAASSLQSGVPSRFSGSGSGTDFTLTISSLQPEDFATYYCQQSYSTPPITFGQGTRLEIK
notes: also called anti-human C19orf80 (ANGPTL8) (H4H15361P2); biotinylated-H4H15361P2
B4: H4H15341P (antibody, human IgG4, V domains shown)
VH: EVQLVESGGGLVQPGGSLRLSCAASGFTFNNHEMNWVRQAPGKGLEWVSYISSSGNTVTYADFLKGRFTISRDNAKNSLFLQMNSLRDEDTAVYYCARDHLSGTSPLSYWGQGTLVTVSS
VL: DIQMTQSPSSLSASVGDRVTITCQASQDINNYLNWFQQKPGKAPKLLIFDASNLETGVPSRFSGSGSGTDFTFTISSLQPEDIATYFCQQYENLPYTFGQGTKLEIK
notes: also called biotinylated-H4H15341P

Assays:
[1] = biological target: T1, human ANGPTL8 (human, UniProt Q6UXH0 22-198); assay: immunoprecipitation from cell conditioned media, Western blot
T1 construct: also called hANGPTL8; Angiopoietin-like protein 8
T1 sequence: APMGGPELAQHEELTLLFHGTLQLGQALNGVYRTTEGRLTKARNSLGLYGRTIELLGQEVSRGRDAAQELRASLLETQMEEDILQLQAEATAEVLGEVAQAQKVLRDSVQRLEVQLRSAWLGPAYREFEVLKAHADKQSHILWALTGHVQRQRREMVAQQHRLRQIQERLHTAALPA
Procedure: The selection process involved performing a series of immunoprecipitations (IPs), in which each mAb was incubated with cell conditioned media (CM) containing the human ANGPTL8 protein. A resin that identifies human IgG4 was then applied to the mAb/CM mixtures. The resin beads targeted the mAbs, binding the mAb-human ANGPTL8 complex. A series of Western blots probing for human ANGPTL8 were run on the various fractions of the IPs, and anti-human ANGPTL8 mAbs were selected based on high human ANGPTL8 expression in the IP fractions, with low human ANGPTL8 expression in the unbound fractions.

[2] = biological target: T2, human ANGPTL8 dimer protein with mouse Fc tag (human, UniProt Q6UXH0 22-198); assay: sandwich ELISA, biotinylated detection mAb, dimer (mFc) standard
T2 construct: also called hANGPTL8.mFc; dimer form of human ANGPTL8; not shown: mouse Fc tag
T2 sequence: T1 sequence
Procedure: (§1) Proteins and mAbs stored at −80° C. were thawed and kept on ice, as they were needed. The wells of the ELISA plate were coated with capture mAb, at a concentration of 4 μg/mL in PBS, and a volume of 100 μL/well. The plate was covered with a plate sealer, and stored at 4° C. overnight (approximately 18 hours). The wells of the plate were then washed with 350 μL/well wash buffer (0.1% Tween-20 in PBS), for a total of 3 washes, using an automated plate washer. Excess wash remnants were removed by inverting and tapping the plate against clean paper towels. Blocking buffer (1% Fraction V BSA in PBS) was added at 300 μL/well. The plate was covered with a plate sealer, and placed on a plate shaker at room temperature, shaking at 300 rpm for a minimum of 1 hour.
(§2) After the blocking period, the wells of the ELISA plate were washed again, and excess wash remnants were removed, as previously described. The standards and the diluted samples were added to the plate in duplicate, with 100 μL/well. The plate was covered with a plate sealer and placed on a plate shaker at room temperature, shaking at 500 rpm for 2 hours. The wells of the ELISA plate were washed again, and excess wash remnants were removed, as previously described. The detection mAb was added at a concentration of 400 ng/mL in assay diluent (1% Fraction V BSA/0.1% Tween-20 in PBS), with 150 μL/well. […]

[3] = biological target: T2, human ANGPTL8 dimer protein with mouse …; assay: sandwich ELISA, capture mAb, dimer (mFc) standard
Procedure: as §1, §2

[4] = biological target: T1, human ANGPTL8; assay: sandwich ELISA on ex vivo serum samples
Procedure: as §1, §2

Binder | binding result [1] | binding result [2] | binding result [3] | binding result [4]
B1 | binds | binds |  | 
B2 |  |  | binds | binds
B3 |  |  | binds | binds
B4 | binds |  |  | 
